Data published in patent US7563585B2, “Methods of assaying compounds that modulate IL-4 receptor-mediated IgE synthesis utilizing a thioredoxin-like 32 kDa protein (TXNL)” (Rigel Pharmaceuticals, Inc., priority 2002, dated 2009).

What was measured:
[1] = system: IL-4 induced germline ε transcription (ε promoter reporter in A5T4 cells); test: Re-infection assay in naïve A5T4 cells (BFP− vs BFP+ populations, FACS of GFP); type: cell-based, human; conditions: A5T4 reporter line
Experimental: The ability of peptide DR15wt (SEQ ID NO:1) to inhibit germline ε transcription was confirmed in naïve cells. Briefly, Phoenix cells were transfected with a retroviral vector encoding a BFP-DR15wt (SEQ ID NO:1) peptide fusion as described in WO 99/58663 and WO 97/27213. Naïve A5T4 cells were infected with the resultant virions and grown for 3 days. The infected cells were stimulated with IL-4 (60 U/mL) and, after 3 days, the cells were assessed by FACS for BFP and GFP. […] The BFP fluorescence data corresponding to the BFP^+ and BFP^− populations are provided in Panel A. The GFP fluorescence data corresponding to the BFP^+ and BFP^− populations are presented in Panel B. The reporter ratio for this purpose is determined as the geometric mean of the GFP fluorescence of the BFP^− population divided by the geometric mean of the GFP fluorescence of the BFP^+ population. The reporter ratio for the DR15 in this re-infection assay was 1.69.
A collection of DR15 mutants was generated by replacing double amino acid residues in the sequence of DR15wt (SEQ ID NO:1) with a different amino acid, typically an alanine, as described in copending application Ser. No. 10/095,659. The functional profiles for the mutants derived from DR15wt (SEQ ID NO:1) was obtained by constructing and screening for activity in the A5T4 reporter cell line in the manner described above. […]

[2] = biological target: T1, human thioredoxin-like 32 kDa protein (hTXNL) (Homo sapiens, UniProt O43396); test: β-galactosidase yeast two hybrid (YTH) interaction assay; type: binding
T1 construct: expressed in transfected cells; prey cDNA from a library of the A5T4 reporter line (derived from BJAB B-cells)
T1 sequence (O43396 1-289): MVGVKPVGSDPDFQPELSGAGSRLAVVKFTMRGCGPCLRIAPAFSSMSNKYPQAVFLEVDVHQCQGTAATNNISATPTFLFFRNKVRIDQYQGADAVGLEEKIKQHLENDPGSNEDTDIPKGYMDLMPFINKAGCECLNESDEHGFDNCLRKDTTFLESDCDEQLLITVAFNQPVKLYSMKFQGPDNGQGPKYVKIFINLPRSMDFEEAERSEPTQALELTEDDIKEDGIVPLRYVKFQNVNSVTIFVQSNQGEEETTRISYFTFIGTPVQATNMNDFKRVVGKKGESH
Experimental: Potential binding partners for peptide DR15wt were identified in a β-galactosidase yeast two-hybrid (YTH) assay using peptide DR15wt as bait and a cDNA library constructed from the A5T4 reporter cell line as prey. Binding was assessed by β-galactosidase quantification using BetaFluor (Novagen) as a substrate. A negative interaction control (no cDNA fused downstream of the GAL4 activation domain sequence) was also run. A general outline of the YTH assay is illustrated in FIG. 5A. Following clustering, filtering to remove non-specific bait hits (e.g., GFP and BFP), singletons and clusters recognized by 10 or more cDNA baits (based upon historical YTH assays), and prioritization, 10 prey clones were identified as hits.
Potential targets identified in the YTH assay were reconfirmed as generally outlined in FIG. 6. The cDNA clones identified as hits in the YTH assay were purified and rescreened for interaction with the DR15wt (SEQ ID NO:1) peptide in a YTH assay. The hit clones were also screened in a control assay for interaction with the BFP using a vector (pGBKT7) that contained only the BFP and not the DR15 peptide. At this stage, 8 putative target clones remained.
The interaction of DR15wt (SEQ ID NO:1) peptide and its mutants with the clones identified as potential targets for the peptide DR15wt (SEQ ID NO:1) was then quantified in a galactosidase YTH assay. The YTH assay was performed in the manner described above. A general outline of this YTH assay is illustrated in FIG. 5B. For each clone tested, an interaction profile was developed by comparing the β-galactosidase activity of each mutant to that of the wild type peptide as described above.
The interaction of these IOF and ROF mutants with different polypeptides encoded by the putative target clones were quantified using the YTH assay described above. Based on the YTH assay, for each putative target, a subset of the mutants representing each of the above functional categories, when available, were categorized into the following four interaction categories: (1) reduction of interaction (ROI); (2) loss of interaction (LOT); (3) increase of interaction (101); and (4) interactionally neutral (N), by assessing the binding affinity ratio of the mutant peptide and the wild type peptide (β-gal activity of mutant/wild type) to the putative target. For the YTH interaction assay mutants DR15PE (SEQ ID NO:2), DR15QI (SEQ ID NO:3), and DR15YM (SEQ ID NO:4) as well as originally identified DR15wt (SEQ ID NO:1), were used.

[3] = system: endogenous α promoter (ST486 cells); test: TAQMAN assay of endogenous germline α promoter transcription in ST486 cells; type: cell-based; conditions: ST486 cells stimulated with TGF-β 40 ng/ml; average of 3 values; p=0.7797
Experimental: The assay was similar to that described in the immediately preceding section, except that ST486 cells (ATCC # CRL-1647) engineered to express the tetracycline-regulated transactivator were infected and the infected cells were stimulated with TGF-β (40 ng/ml; Peprotech). The primers and probe, which are specific for the transcription product driven by the ST486 endogenous α promoter, were as follows (the probe was labeled at the 5′-end with Fam and at the 3′-end with Tamra): […]

Sequence | functional category based on reporter ratio compared to DR15wt [1] | binding to hTXNL in yeast two hybrid interaction assay [2] | endogenous α inhibition ratio [3]
AARCYMRMPPQSLADAQIYS (Peptide generated by a combinatorial library) [DR15PE, dual alanine mutant of DR15wt] | IOF (An increase of function mutant (IOF) shows a >50% increase in reporter ratio) | found to bind | –
PERCAARMPPQSLADAQIYS (peptide generated from combinatorial library) [DR15YM, dual alanine mutant of DR15wt] | – | found to bind | –
PERCYMRMPPQSLADAAAYS (peptide generated from combinatorial library) [DR15QI, dual alanine mutant of DR15wt] | – | found to bind | –
PERCYMRMPPQSLADAQIYS (peptide generated from a combinatorial library) [DR15wt, 20-mer peptide from a random retroviral library, expressed as BFP-peptide fusion] | – | found to bind | 0.98
